# Assay results reported in article PMC7610145, “Transglutaminase-Mediated Cross-Linking of Tropoelastin to Fibrillin Stabilises the Elastin Precursor Prior to Elastic Fibre Assembly” (Journal of Molecular Biology, 2020).
# T1: tropoelastin, SHELΔ26A (Synthetic Human Elastin without domain 26A) (human, UniProt P15502-2 27-724)
# T1 construct: human tropoelastin without domain 26A; residues 27–724, the 60 kDa mature form of the secreted protein following removal of the signal peptide; the precursor counted on has 724 residues (isoform lacking domain 26A); contains K38 in domain 4; also called TE; full-length TE; source: expressed in bacteria, purified as described previously [23]
# T1 sequence (looked up): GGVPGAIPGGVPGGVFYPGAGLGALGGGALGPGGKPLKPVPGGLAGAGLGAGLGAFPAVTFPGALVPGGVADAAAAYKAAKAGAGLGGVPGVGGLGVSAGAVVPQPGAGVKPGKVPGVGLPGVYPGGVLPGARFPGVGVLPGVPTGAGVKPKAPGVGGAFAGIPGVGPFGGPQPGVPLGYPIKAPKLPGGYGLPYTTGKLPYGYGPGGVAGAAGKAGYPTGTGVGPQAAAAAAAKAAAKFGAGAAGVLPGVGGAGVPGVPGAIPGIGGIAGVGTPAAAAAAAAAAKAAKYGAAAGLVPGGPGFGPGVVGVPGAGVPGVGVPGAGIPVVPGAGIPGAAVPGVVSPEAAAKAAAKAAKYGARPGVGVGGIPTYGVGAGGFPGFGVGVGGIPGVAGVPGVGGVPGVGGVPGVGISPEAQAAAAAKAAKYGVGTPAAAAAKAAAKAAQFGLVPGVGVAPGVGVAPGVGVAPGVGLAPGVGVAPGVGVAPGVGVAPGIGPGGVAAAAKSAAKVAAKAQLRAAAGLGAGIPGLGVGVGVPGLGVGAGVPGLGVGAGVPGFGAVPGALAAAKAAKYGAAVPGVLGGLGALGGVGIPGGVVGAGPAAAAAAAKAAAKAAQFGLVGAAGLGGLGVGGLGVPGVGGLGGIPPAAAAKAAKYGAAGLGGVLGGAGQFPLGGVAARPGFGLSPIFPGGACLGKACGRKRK
# Assays:
# Conditions in all cases: both partners purified
# [1] = molecular target: T1, tropoelastin, SHELΔ26A (Synthetic Human …); test: SEC; PF2 and TE incubated with TG2 at a 1:1 ratio, separated on a Superose 6 column in 10 mM Hepes, 500 mM NaCl, 1 mM CaCl2 (pH 7.4); fractions on SDS-PAGE
# [2] = molecular target: T1, tropoelastin, SHELΔ26A (Synthetic Human …); test: cross-linking; PF2 and TE incubated alone or together (1:1 or 2:1) at 16 °C for 2 h in 10 mM Hepes, 500 mM NaCl, 1 mM CaCl2 (pH 7.4), then with or without TG2 from guinea pig liver for a further 4 h; read by SDS-PAGE
# [3] = molecular target: T1, tropoelastin, SHELΔ26A (Synthetic Human …); test: SEC-MALS; TG2 cross-linked complex eluting at ~10 ml, 0.5 mg/ml, Superose 6, 10 mM Tris–HCl (pH 7.4), 150 mM NaCl
binder,measurement,setting,value
"fibrillin-1 PF2 fragment (domains TB1 to TB2, encoded by exons 9–17), natively glycosylated (domain or fragment, N-linked glycan at N448, fibrillin-1, fragment encompassing domains TB1 to TB2, encoded by exons 9–17; includes Q669 (TB2); SAXS data on PF2, TE and the complex are deposited in the SASDB (SAS2517, 2518, 2519); also called fibrillin PF2; fibrillin PF2 construct) not shown",stoichiometry of the larger species,[1],2 copies of each (2:2)
same,stoichiometry N,[2],1 PF2:TE
same,stoichiometry N,[3],~1 PF2:TE
